Paper PMC8395497

Legend:
[1] = target: Halichondria panicea ferritin HpF1 (Halichondria panicea (endogenous in sponge body tissue)); assay: native gel or EMSA; sponge body tissue homogenates (20 mM EDTA, 50 mM Hepes-Na pH 7.2, 200 mM NaCl, 4 °C) on a native 3.5-10% polyacrylamide gradient gel in 50 mM Bis-Tris-glycine pH 8.0; Prussian blue staining and UV 360 nm absorbance; markers horse ferritin (440 kDa) and thyroglobulin (670 kDa); high molecular mass bands cut out and identified by MALDI/TOF mass spectrometry
[2] = target: Halisarca dujardini ferritin HdF1a/b (Halisarca dujardini (endogenous in sponge body tissue)); assay: as above

| stoichiometry N [1] [subunits] | stoichiometry N [2] [subunits] | Substance |
| --- | --- | --- |
| 24 |  | Halichondria panicea ferritin HpF1 (natural protein) |
|  | 24 | Halisarca dujardini ferritin HdF1a/b (natural protein) |
